The chains are these.
B1: murine antibody 20-2-1 (clone 83F7B2) (antibody, V domains shown)
VH: QIQLVQSGPELKKPGETVKISCKASGYTFTDFSMHWVKQAPGKGLKWMGWINTETGEPSYADDFKGRFAFSLETSASTAYLQINNLKNEDTATYFCANYGYDVRGDYWGQGTTLTVSS
VL: EIVLTQSPTTMAASPGEKITITCSASSSISSNYLHWYQQKPGFSPKLLIYGTSNLASGVPARFSGSGSGTSYSLTIGTMEAEDVATYYCHQGSSIPLTFGAGTKLELK
notes: Murine monoclonal antibody purified from the subclone supernatant
B2: murine antibody 20-2-28 (clone 84C3G8H7) (antibody, V domains shown)
VH: EVQLQQSGAELVRPGALVKLSCKASGFNIKDYYMHWVKQRPEQGLEWIGWIDPENGNTIYDPKFQGKASITADTSSNTAYLQLSSLTSEDTAVYYCARGWFAYWGQGTLVTVSA
VL: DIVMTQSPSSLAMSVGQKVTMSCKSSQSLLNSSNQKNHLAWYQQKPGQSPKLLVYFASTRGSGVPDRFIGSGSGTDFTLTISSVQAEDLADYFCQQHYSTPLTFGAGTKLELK
notes: Murine monoclonal antibody purified from the subclone supernatant; also called clone #28
B3: murine antibody 20-2-4 (clone 88A3C8) (antibody, V domains shown)
VH: B2 VH
VL: DILMTQSPSSLAMSVGQKVTMSCKSSQSLLNSSNQKNHLAWYQQKPGQSPKLLVYFASTRASGVPDRFIGSGSGTDFTLTISSVQAEDLADYFCQQHYSTPLTFGAGTKLELK
notes: Murine monoclonal antibody purified from the subclone supernatant; also called clone #4
B4: humanized antibody 40-2-H11 (98G2E9-VH5 + VL7) (scFv)
scFv: EVQLLESGGGLVQPGGSLKLSCAASGFTFSGYAMSWVRQTPGKGLEWVATITSGGSYTYYPDSVKGRFTISRDNSKNTLYLQMNSLRAEDTAMYYCARKDYGNYWFAYWGQGTLVTVSSGGGGSGGGGSGGGGSGGGGSDVVMTQSPLSLPVTLGDQASISCRSSQSLVHSDGNTYLHWYLQKPGQSPKLLIYKVSNRFSGVPDRFSGSGSGTDFTLKISRVEAEDVGVYFCSQTTQVPWTFGGGTKLEIK
notes: the format in the SPR assay is not clearly stated
B5: humanized antibody 40-2-H12 (98G2E9-VH6 + VL5) (scFv)
scFv: B4 scFv with G42E, S75A, Q157P, K183R, K189R
notes: as for B4
B6: humanized antibody 40-2-H9 (98G2E9-VH5 + VL5) (scFv)
scFv: B4 scFv with Q157P, K183R, K189R
notes: as for B4
B7: humanized antibody 40-2-H13 (98G2E9-VH6 + VL6) (scFv)
scFv: B4 scFv with G42E, S75A, D156Q
notes: as for B4
B8: humanized antibody 40-2-H10 (98G2E9-VH5 + VL6) (scFv)
scFv: B4 scFv with D156Q
notes: as for B4
B9: 20-2-13 (antibody, V domains shown)
VH: QVQLQQPGAELVKPGASVKLSCKASGYSFTRYWMHWVKQRPGQGLEWIGEINPSNGRANYNEKFMSKATLTVDKSSSTAYMQLSSLTSEDSAVYYCARGREITTGFAYWGQGTLVTVSA
VL: SIVMTQTPKFLLVSAGDRVTITCKASQSVSNDVVWYQQKPGQSPKLLIYYASNRYTGVPDRFTGSGYGTDFTFTITTVQAEDLAVYFCQQDYSSPWTFGGGTKLEIK
notes: also called 90F6C1
B10: 20-2-52 (antibody, V domains shown)
VH: QIQLVQSGPELKKPGETVKISCKASGYTFINYGMNWVKQTPGKGLKWMGWINTYTGEPTYADDFKGRFAFSLETSASTAYLQINNLKNEDMATYFCSREEFYSRGAMDYWGQGTSVTVSS
VL: DVLMTQTPLSLPVSLGDQASISCRSSQFIVHSNGNTYLEWYLQKPGQSPKLLIYKISNRFSGVPDRFSGSGSGTDFTLKISRVEAEDLGVYYCFQGSHVPFTFGSGTKLEIK
notes: also called 124A5F2
B11: 20-2-7 (antibody, V domains shown)
VH: B1 VH with F32Y, M34I, S59T, A97S
VL: B1 VL with K18N, S28G, K46E, G51S, S94D, K104R
notes: also called 89C2A11
B12: 20-2-49 (antibody, V domains shown)
VH: QVQLQQSGAELAKPGASVKMSCKASAYTFTTYWMHWVKQRPGQGLEWIGYINPNTAYTEYNQNFKDKATLTADKSSSTAYMQLGSLTSEDSAVYYCARGAYYRTYYAMDYWGQGTSVTVSS
VL: DIVLTQSPASLAVSLGQRATISCKASQSVDYDGDSYMNWYQQKPGQPPKLLIYAASNLESGIPARFSGSGSGTDFTLNIHPVEEEDAATYYCLQSNEDPYTFGGGTRLEIN
notes: also called 121E9D12
B13: 20-2-25 (antibody, V domains shown)
VH: B2 VH with W100Y, F101L, A102V
VL: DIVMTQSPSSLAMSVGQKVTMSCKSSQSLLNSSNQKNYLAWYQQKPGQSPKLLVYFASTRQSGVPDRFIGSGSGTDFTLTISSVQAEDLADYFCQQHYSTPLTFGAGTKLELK
notes: the antibody in the subclone supernatant, not the CAR m26; also called 70B6F6H11
B14: 20-2-19 (antibody, V domains shown)
VH: B2 VH with W100Y, F101L
VL: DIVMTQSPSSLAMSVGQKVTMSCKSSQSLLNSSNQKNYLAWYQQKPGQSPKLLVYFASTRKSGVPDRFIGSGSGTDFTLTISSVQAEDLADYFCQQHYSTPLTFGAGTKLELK
notes: also called 53H2H7 (recombinantly expressed)
B15: 20-2-22 (antibody, V domains shown)
VH: B2 VH with Y80C
VL: B3 VL with A61Q
notes: also called 57D8C3
B16: 20-2-31 (antibody, V domains shown)
VH: B2 VH with W100Y, F101L, A102V
VL: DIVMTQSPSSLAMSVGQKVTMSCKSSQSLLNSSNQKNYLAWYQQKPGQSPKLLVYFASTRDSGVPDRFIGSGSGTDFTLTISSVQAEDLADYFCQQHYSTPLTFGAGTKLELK
notes: also called 95G10G8E4
B17: 20-2-10 (antibody, V domains shown)
VH: B2 VH with E10D, M34L, W100Y, F101L, A102T
VL: B3 VL with L3V, S22N, S28N, H38Y, Y42F, A61Y, I69M, I81V
notes: also called 75H11B1
B18: 20-2-16 (antibody, V domains shown)
VH: B2 VH with S69T, W100Y, F101L, A102V
VL: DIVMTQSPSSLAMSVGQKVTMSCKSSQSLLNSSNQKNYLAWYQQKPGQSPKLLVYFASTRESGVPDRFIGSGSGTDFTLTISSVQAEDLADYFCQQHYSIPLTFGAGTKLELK
notes: also called 90H3D2
B19: 20-2-34 (antibody, V domains shown)
VH: B2 VH with W100Y, F101L, A102V
VL: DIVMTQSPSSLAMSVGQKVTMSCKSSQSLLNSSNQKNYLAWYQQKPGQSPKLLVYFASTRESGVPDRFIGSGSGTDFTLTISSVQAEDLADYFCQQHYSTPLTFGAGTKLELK
notes: the antibody in the subclone supernatant, not the CAR m28; also called 84G9F9
B20: 20-2-55 (antibody, V domains shown)
VH: QIQLQQSGPELVKPGASVKISCKASGYSFTDYYINWVKQKPGQGLEWIGWIYPGSGNTKYNEKFKGKATLTVDTSSSTAYMQLNSLTSEDTAVYFCARSSRCDFWGQGTTLTVSS
VL: DIQMTQSASSFSVSLGDSVTITCKASEDIYNRLAWYQQKPGNTPRLLISGATSLETGVPSRFSGSGSGKDYTLSITSLQTEDVATYYCQQYWSSPLTFGSGTKLELK
notes: also called 136C11E7
B21: 20-2-43 (antibody, V domains shown)
VH: DVQLQESGPDLVKPSQSLSLNCTVTGYSITSGYSWHWIRQFPGNKLEWMGYIHYSGSTNYNPPLKSRIFIARDTSKNQFFLQLTSVTTEDTATYYCARGVVSNYAMGNWGQGTSVTVSS
VL: ETTVTQSPASLSMAIGEKVTIRCITNTDIDDDMNWYQQKPGEPPKLLISEGNTLRPGVPSRFSSSGYGTDFVFTIENMLSEDVADYYCLQSDDLPLTFGSGTKLEIK
notes: also called 115A10H4
B22: 20-2-37 (antibody, V domains shown)
VH: EVMLVESGGGLVKPGGSLKLSCAASRFTFSNYAMSWVRQTPEKRLEWVATITSGGSYTYYPDSVKGRFTISRDNAKNTLYLQMSSLRSEDTAMYYCARKDYGNYWFAYWGQGTLVTVSA
VL: DVVMTQTPLSLPVSLGDQASISCRSSQSLVHSDGNTYLHWYLQKPGQSPKLLIYKVSNRFSGVPDRFSGSGSGTDFTLKISRVEAEDLGVYFCSQSIHVPWTFGGGTKLEIK
notes: also called 98B10B12
B23: chimeric-VH + VL of clone 20-2-40-2 (98G2E9) (antibody, V domains shown)
VH: B22 VH with M3L, R26G, N31G
VL: B22 VL with S96T, I97T, H98Q
notes: also called clone #40-2

Numbering of substitutions follows the chain as printed.

One experiment addresses T1, EGFRvIII target antigen (SPR ligand) (UniProt P00533 25-645, limits assumed).
T1 construct: also called EGFRvIII antigen
Put plainly: SPR; EGFRvIII as ligand, antibody as analyte. For orientation: Surface plasmon resonance follows binding to a sensor surface in real time, without labels.
The molecule B1 displayed a Kd of 23.7 nM, a koff of 0.00119 s⁻¹ and an on-rate (kon) of 50100 M⁻¹ s⁻¹.
For the molecule B2, the koff was 0.0165 s⁻¹.
B3 had an off-rate (koff) of 0.00864 s⁻¹.

Another experiment deals with T1, EGFRvIII target antigen (SPR ligand). Put plainly: SPR.
For B4, the “fold reduction of affinity against the murine antibody from clone #40-2” value was about 2 fold.
Still for that read-out and setting: in the case of B5 it was about 2 fold.
Still for that read-out and setting: in the case of B6 it was about 2 fold; in that of B7, about 2 fold; in that of B8, about 2 fold.

Another experiment has as its target T2, EGFRvIII overexpressed on target cells (UniProt P00533 25-1210).
T2 construct: whole, on cells; Same protein on two cell lines: F98npEGFRvIII for flow cytometry, U87MG-EGFRvIII for the killing assays; also called F98npEGFRvIII; U87MG-EGFRvIII
Put plainly: flow cytometry of the subclone supernatant on F98npEGFRvIII cells (Geom mean). A general note: A flow cytometer gives signals particle by particle.
For the molecule B9, the binding result is “binds”.
Consider B10, for which the binding result is “binds”.
For the molecule B11, the binding result is given as “binds”.
Turning to B12, the binding result was “binds”.
As for B13, the binding result is given as “binds”.
In the case of B14, the binding result was “binds”.
Turning to B15, the binding result is given as “binds”.
The same measure, in the same setting: in the case of B16 it was “binds”.
As for B17, the binding result is listed as “binds”.
With B18, the binding result is recorded as “binds”.
For the molecule B19, the binding result is listed as “binds”.
Regarding B20, the binding result was “binds”.

Another experiment addresses T3, EGFR (wild type) expressed on target cells (UniProt P00533 25-1210, limits assumed).
T3 construct: whole, on cells; also called F98npEGFR; U87MG-EGFR
Put plainly: flow cytometry of the subclone supernatant on F98npEGFR cells (Geom mean).
Turning to B9, the binding result is reported as “no binding”.
As to B10, the binding result is given as “no binding”.
Take B1: the binding result was “no binding”.
With B11, the binding result was “no binding”.
Same read-out and setting: in the case of B21 it was “no binding”; in that of B12, “no binding”.
On the same count and under the same terms, in the case of B22 it was “no binding”.
For B13, the binding result is reported as “no binding”.
Consider B14, for which the binding result was “no binding”.
With B15, the binding result is given as “no binding”.
B16: the binding result is on record as “no binding”.
Regarding B2, the binding result is on record as “no binding”.
In the case of B17, the binding result was “no binding”.
Take B3: the binding result is recorded as “no binding”.
As for B18, the binding result was “no binding”.
Take B19: the binding result is “no binding”.
On the same count and under the same terms, as for B20, the entry is “no binding”.

The next experiment addresses T1, EGFRvIII target antigen (SPR ligand). Put plainly: SPR; antibody as analyte.
For B4, binding was put at a Kd of 138 nM, the koff stood at 0.00343 s⁻¹ and the kon is 24800 M⁻¹ s⁻¹.
With B5, binding was characterised by a dissociation constant (Kd) of 102 nM, the koff stood at 0.00266 s⁻¹ and the kon turned out to be 26000 M⁻¹ s⁻¹.
In turn, B6 showed an equilibrium dissociation constant (Kd) of 112 nM, a koff of 0.00307 s⁻¹ and an on-rate constant (kon) of 27400 M⁻¹ s⁻¹.
With B7, the Kd was found to be 102 nM, the koff came out at 0.00301 s⁻¹ and the kon stood at 29400 M⁻¹ s⁻¹.
Molecule B8 gave a Kd of 135 nM, a dissociation rate constant (koff) of 0.00345 s⁻¹ and a kon of 25600 M⁻¹ s⁻¹.
B23 showed a Kd of 49.9 nM, an off-rate (koff) of 0.00181 s⁻¹ and an on-rate (kon) of 36200 M⁻¹ s⁻¹.

The term Kd denotes the free concentration of one partner at which half of the binding sites on the other are occupied at equilibrium, for simple one-to-one binding. Usually koff stands for a measure of how fast the partners let go of each other. Read a low koff as a long-lived complex. A word on the kon: it is the second-order rate constant of association. A low value points to slow association.
